The record followed here is paper PMC3709441 (The Biochemical journal, 2009).

Targets include RnPP5 TPR E29A (rat); RnPP5 TPR E56A (rat); RnPP5 TPR E76A (rat); RnPP5 TPR R113A (rat); RnPP5 TPR R117A (rat); RnPP5 TPR Y80A (rat); RnPP5 TPR I63A (rat); RnPP5 TPR K40A (rat); RnPP5 TPR R74A (rat); RnPP5 TPR R101A (rat); RnPP5 TPR K32A (rat).
Common to all, as to assay: ELISA
Assay [1] deals with T1, RnPP5 TPR wild type (rat protein phosphatase 5 TPR domain) (rat).
T1 sequence (P53042 whole entry, looked up): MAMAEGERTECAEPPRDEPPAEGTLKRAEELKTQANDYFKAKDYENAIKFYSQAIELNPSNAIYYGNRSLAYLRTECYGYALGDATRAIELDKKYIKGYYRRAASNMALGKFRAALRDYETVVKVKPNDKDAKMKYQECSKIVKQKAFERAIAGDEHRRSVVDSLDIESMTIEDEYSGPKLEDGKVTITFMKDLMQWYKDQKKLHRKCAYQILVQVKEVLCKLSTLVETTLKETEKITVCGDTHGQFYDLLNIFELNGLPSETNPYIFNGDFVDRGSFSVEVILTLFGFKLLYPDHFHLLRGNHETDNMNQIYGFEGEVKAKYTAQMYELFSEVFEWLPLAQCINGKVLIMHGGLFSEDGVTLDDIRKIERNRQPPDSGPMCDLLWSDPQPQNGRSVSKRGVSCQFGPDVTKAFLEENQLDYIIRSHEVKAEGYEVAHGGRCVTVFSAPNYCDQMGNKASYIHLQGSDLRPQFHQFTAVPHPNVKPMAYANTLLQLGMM

The target in assay [2] is HsHop TPR2B (amino acids 353-477) (human, UniProt P31948 353-477).
HsHop TPR2B (amino acids 353-477), sequence (P31948 353-477): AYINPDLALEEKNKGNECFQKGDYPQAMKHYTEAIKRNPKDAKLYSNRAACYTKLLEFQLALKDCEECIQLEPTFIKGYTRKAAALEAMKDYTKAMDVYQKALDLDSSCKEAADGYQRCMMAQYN
Assay [3] deals with HsHop TPR1 (amino acids 1-118) (human, UniProt P31948 1-118).
HsHop TPR1 (amino acids 1-118), sequence (P31948 1-118): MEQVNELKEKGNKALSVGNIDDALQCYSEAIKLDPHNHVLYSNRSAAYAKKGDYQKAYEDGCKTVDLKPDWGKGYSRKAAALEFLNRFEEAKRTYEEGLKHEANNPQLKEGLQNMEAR
In assay [4] the target is HsHop TPR2A (amino acids 223-352) (human, UniProt P31948 223-352).
HsHop TPR2A (amino acids 223-352), sequence (P31948 223-352): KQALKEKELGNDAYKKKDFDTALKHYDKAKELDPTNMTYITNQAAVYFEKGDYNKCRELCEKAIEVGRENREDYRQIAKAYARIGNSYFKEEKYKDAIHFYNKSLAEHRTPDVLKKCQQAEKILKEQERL
The target of assay [5] is T2, HsPP5 TPR (human protein phosphatase 5 TPR domain, amino acids 1-181) (human, UniProt P53041 1-181).
T2 sequence (looked up): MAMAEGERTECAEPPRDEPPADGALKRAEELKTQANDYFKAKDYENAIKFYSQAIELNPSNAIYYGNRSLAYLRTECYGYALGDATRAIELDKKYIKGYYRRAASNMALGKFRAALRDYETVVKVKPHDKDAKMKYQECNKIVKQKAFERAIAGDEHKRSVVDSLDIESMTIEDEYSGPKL

As to “hsp90 C-12 control phage, displayed peptide … (the 12 residues located at the C-terminus of hsp90)”, the A405 (ELISA) (absorbance at 405 nm) worked out at 1.06 in the assay with RnPP5 TPR E29A (rat); 1.08 in the assay with RnPP5 TPR E56A (rat); 1.12 in the assay with RnPP5 TPR E76A (rat); 0.72 in the assay with RnPP5 TPR R113A (rat); 1.06 with RnPP5 TPR R117A (rat); 1.09 with RnPP5 TPR Y80A (rat).

B1: T7 phage #1 (VD phage #1), displayed peptide … (peptide)
peptide: RFQQMNQSWDVD
Turning to B1, the A405 (ELISA) (absorbance at 405 nm) amounted to 0.84 with RnPP5 TPR I63A (rat); 1.01 with RnPP5 TPR K40A (rat); 0.84 with RnPP5 TPR R113A (rat); 1 in the assay with RnPP5 TPR R117A (rat); 0.75 in the assay with RnPP5 TPR R74A (rat); 1.08 with RnPP5 TPR Y80A (rat). The same molecule yielded an A405 (ELISA) (absorbance at 405 nm) in assay [1] of 1.14.

B2: LFG phage #2, displayed peptide … (peptide)
peptide: KHTVADDELLFG
With B2, the A405 (ELISA) (absorbance at 405 nm) amounted to 0.75 in the assay with RnPP5 TPR E29A (rat); 0.54 in the assay with RnPP5 TPR R101A (rat); 0.74 with RnPP5 TPR R113A (rat); 0.78 with RnPP5 TPR R117A (rat); 0.75 with RnPP5 TPR R74A (rat).

B3: hsp90 C-12 control phage, displayed peptide GDDDTSRMEEVD (the 12 residues located at the C-terminus of hsp90) (peptide)
peptide: GDDDTSRMEEVD
For the molecule B3, the “A405 (ELISA)” value in assay [2] was found to be 0.24 absorbance at 405 nm.

B4: T7 phage #7 (VD phage with a -4 methionine), displayed peptide NAHLRLEMNDVD (peptide)
peptide: NAHLRLEMNDVD
As for B4, the “A405 (ELISA)” value in assay [3] stood at 0.32 absorbance at 405 nm; in [4], 0.04 absorbance at 405 nm; in [5], 0.56 absorbance at 405 nm.

B5: LFG phage #1, displayed peptide … (peptide)
peptide: RLLSADDDVLFG
As for B5, the A405 (ELISA) (absorbance at 405 nm) in the assay with RnPP5 TPR E56A (rat) is 0.78; with RnPP5 TPR K32A (rat), 0.74; with RnPP5 TPR R101A (rat) it was 0.53; with RnPP5 TPR R113A (rat) it was 0.66; with RnPP5 TPR R117A (rat), 0.8.
